Experimental data: publication PMC5755706 (Nature structural & molecular biology, 2017)

Key:
[1] = target: human TRF2^TRFH (human) (UniProt Q15554); test: flow cytometry protein interaction assay
[2] = target: the molecule itself; test: crystal structure
[3] = target: T1, MBP-tagged TERB1^TRFB – TERB2^1-107 (human, UniProt Q8NA31;Q8NHR7); test: pull-down
T1 sequence 1: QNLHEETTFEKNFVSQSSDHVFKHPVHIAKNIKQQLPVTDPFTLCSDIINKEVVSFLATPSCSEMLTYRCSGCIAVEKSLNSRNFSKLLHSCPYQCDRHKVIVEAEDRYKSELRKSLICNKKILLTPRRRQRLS
T1 sequence 2: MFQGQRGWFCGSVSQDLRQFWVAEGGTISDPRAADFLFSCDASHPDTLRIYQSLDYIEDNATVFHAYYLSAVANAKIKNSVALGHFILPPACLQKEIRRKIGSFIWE

[4] = target: T2, GST-TRF1^TRFH (human, UniProt P54274 62-265); test: pull-down
T2 sequence: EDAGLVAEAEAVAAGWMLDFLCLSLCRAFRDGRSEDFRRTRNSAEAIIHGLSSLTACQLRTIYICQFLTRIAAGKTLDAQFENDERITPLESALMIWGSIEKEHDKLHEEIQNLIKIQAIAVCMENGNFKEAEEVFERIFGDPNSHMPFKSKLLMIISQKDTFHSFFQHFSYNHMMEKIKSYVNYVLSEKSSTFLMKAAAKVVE

Chain of human TRF2^TRFH (human) (Q15554 whole entry): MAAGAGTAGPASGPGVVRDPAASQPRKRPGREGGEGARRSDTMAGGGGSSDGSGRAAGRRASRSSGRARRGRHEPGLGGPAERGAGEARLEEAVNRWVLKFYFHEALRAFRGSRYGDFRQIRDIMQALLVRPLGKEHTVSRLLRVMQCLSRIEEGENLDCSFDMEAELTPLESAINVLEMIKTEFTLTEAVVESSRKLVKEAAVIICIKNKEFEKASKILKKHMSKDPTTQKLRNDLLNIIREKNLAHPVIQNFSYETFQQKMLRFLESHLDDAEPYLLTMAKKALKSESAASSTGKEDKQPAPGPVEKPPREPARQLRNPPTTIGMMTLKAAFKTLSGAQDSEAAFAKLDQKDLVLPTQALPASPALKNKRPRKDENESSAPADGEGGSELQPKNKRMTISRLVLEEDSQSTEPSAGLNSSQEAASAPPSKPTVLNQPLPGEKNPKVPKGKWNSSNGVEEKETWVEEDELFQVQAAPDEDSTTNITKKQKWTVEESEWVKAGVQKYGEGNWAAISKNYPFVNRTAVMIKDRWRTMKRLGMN

Q: “His-Smt3-TERB1^TBM I645E (from UniProt Q8NA31 643-656) (peptide)” was tested. Which relative IC50 (normalized to TERB1^TBM WT) [1] did it give?
A: 2.25

Q: How did the relative IC50 (normalized to TERB1^TBM WT) [1] turn out when “His-Smt3-TERB1^TBM R652E (from UniProt Q8NA31 643-656) (peptide)” was run?
A: 1.05

Q: With “His-Smt3-TERB1^TBM I645F (from UniProt Q8NA31 643-656) (peptide)” as the molecule, how does the relative IC50 (normalized to TERB1^TBM WT) [1] read?
A: 2.6

Q: “His-Smt3-TERB1^TBM WT (from UniProt Q8NA31 643-656) (peptide)” was tested. Which relative IC50 (normalized to TERB1^TBM WT) [1] did it give?
A: 1

Q: For “His-Smt3-TERB1^TBM T648A (from UniProt Q8NA31 643-656) (peptide)”, which relative IC50 (normalized to TERB1^TBM WT) [1] is on record?
A: 0.4

B1: TERB1^TRFB - TERB2^1-107 complex WT (complex)
chain 1: QNLHEETTFEKNFVSQSSDHVFKHPVHIAKNIKQQLPVTDPFTLCSDIINKEVVSFLATPSCSEMLTYRCSGCIAVEKSLNSRNFSKLLHSCPYQCDRHKVIVEAEDRYKSELRKSLICNKKILLTPRRRQRLS
chain 2: MFQGQRGWFCGSVSQDLRQFWVAEGGTISDPRAADFLFSCDASHPDTLRIYQSLDYIEDNATVFHAYYLSAVANAKIKNSVALGHFILPPACLQKEIRRKIGSFIWE
Q: For B1, which relative IC50 (normalized to TERB1^TRFB - TERB2^1-107 WT) [1] is on record?
A: 1

B2: TERB1^TRFB - TERB2^1-107 I645E (complex)
chain 1: QNLHEETTFEKNFVSQSSDHVFKHPVHIAKNIKQQLPVTDPFTLCSDIINKEVVSFLATPSCSEMLTYRCSGCIAVEKSLNSRNFSKLLHSCPYQCDRHKVIVEAEDRYKSELRKSLICNKKELLTPRRRQRLS
chain 2: MFQGQRGWFCGSVSQDLRQFWVAEGGTISDPRAADFLFSCDASHPDTLRIYQSLDYIEDNATVFHAYYLSAVANAKIKNSVALGHFILPPACLQKEIRRKIGSFIWE
Q: For B2, which relative IC50 (normalized to TERB1^TRFB - TERB2^1-107 WT) [1] is on record?
A: 0.4

B3: TERB1^TRFB - TERB2^1-107 I645F (complex)
chain 1: QNLHEETTFEKNFVSQSSDHVFKHPVHIAKNIKQQLPVTDPFTLCSDIINKEVVSFLATPSCSEMLTYRCSGCIAVEKSLNSRNFSKLLHSCPYQCDRHKVIVEAEDRYKSELRKSLICNKKFLLTPRRRQRLS
chain 2: MFQGQRGWFCGSVSQDLRQFWVAEGGTISDPRAADFLFSCDASHPDTLRIYQSLDYIEDNATVFHAYYLSAVANAKIKNSVALGHFILPPACLQKEIRRKIGSFIWE
Q: How did the relative IC50 (normalized to TERB1^TRFB - TERB2^1-107 WT) [1] turn out when B3 was run?
A: 0.8

B4: human TRF1^TRFH (TRF homology domain of TRF1, aa 62-265) (domain or fragment)
chain: EDAGLVAEAEAVAAGWMLDFLCLSLCRAFRDGRSEDFRRTRNSAEAIIHGLSSLTACQLRTIYICQFLTRIAAGKTLDAQFENDERITPLESALMIWGSIEKEHDKLHEEIQNLIKIQAIAVCMENGNFKEAEEVFERIFGDPNSHMPFKSKLLMIISQKDTFHSFFQHFSYNHMMEKIKSYVNYVLSEKSSTFLMKAAAKVVE
modifications: biotin (biotin maleimide) on cysteines in the flow-cytometry bead assays; unlabelled in the pull-downs and the crystal
Q: With B4 as the molecule, how does the “stoichiometry N” value [2] read?
A: 2

Q: Does B4 bind [3]?
A: binds

Q: Does KKILLTPRRRQRLS [His-Smt3-TERB1^TBM WT] bind [4]?
A: binds

Q: Does KKFLLTPRRRQRLS [His-Smt3-TERB1^TBM I645F] bind [4]?
A: binds
